Measurements taken from US20190055314A1 (ADAGENE, published 2019).
Changes are numbered by the printed parent chain.

B1: Fab 4074 (Fab, V domains shown)
VH: EVQLVESGGGLVQPGGSLRLSCAASGFSLSTGGVGVSWIRQAPGKGLEWVSSISGSGGTTYYADSVKGRFTISRDNSKNTLYLQLNSLRAEDTAVYYCARDDLYSWYFDVWGQGTLVTVSS
VL: DIQLTQSPSSLSASVGDRVTITCRASQGIGSSLAWYQQKPGKAPKLLIYAASSLQSGVPSRFSGSGSGTDFTLTISSLQPEDFATYYCQQGYYTWTFGQGTKVEIKR
notes: Fab from E. coli
B2: Fab 5316 (Fab, V domains shown)
VH: EVQLVESGGGLVQPGGSLRLSCAASGYSISSGYHWAWIRQAPGKGLEWVSSISGDGSSTYYADSVKGRFTISRDNSKNTLYLQLNSLRAEDTAVYYCAREGSDAVTGDWFAYWGQGTLVTVSS
VL: B1 VL with I29V, S31T, S32Y, A50D, Q55E, Y93S, T94L
notes: Fab from E. coli; also called VH17/VL17
B3: Fab 5300 (Fab, V domains shown)
VH: EVQLVESGGGLVQPGGSLRLSCAASGYTFSNYWIHWVRQAPGKGLEWVSYISGDGDTTYYADSVKGRFTISRDNSKNTLYLQLNSLRAEDTAVYYCAREGSTTVAGDWFAYWGQGTLVTVSS
VL: B1 VL with S32F, A34G, A50D, Q55E, G91Y, Y93S, T94L, W95V
notes: Fab from E. coli; also called VH12/VL12
B4: Fab 5367 (Fab, V domains shown)
VH: EVQLVESGGGLVQPGGSLRLSCAASGFSLSTSGVGVGWIRQAPGKGLEWVSGISGAGDSTYYADSVKGRFTISRDNSKNTLYLQLNSLRAEDTAVYYCAREGSDTVLGDWFAYWGQGTLVTVSS
VL: DIQLTQSPSSLSASVGDRVTITCRASQDIRSYLAWYQQKPGKAPKLLIYDASNRATGIPSRFSGSGSGTDFTLTISSLQPEDFATYYCQQGYSIWTFGQGTKVEIKR
notes: Fab from E. coli; also called VH31/VL31
B5: Fab 5323 (Fab, V domains shown)
VH: EVQLVESGGGLVQPGGSLRLSCAASGFSLSTSGVGVGWIRQAPGKGLEWIGEIYHSGSTYYSPSLKSRVTISRDNSKNTLYLQLNSLKAEDTAVYYCAREGSDVVTGDWFAYWGQGTLVTVSS
VL: B1 VL with G30S, S32V, A50D, Q55E, Y93S, T94L
notes: Fab from E. coli; also called VH19/VL19
B6: Fab 5365 (Fab, V domains shown)
VH: EVQLVESGGGLVQPGGSLRLSCAASGFSLSTGGVGVGWIRQAPGKGLEWLALIDWADDKYYSPSLKSRLTISRDNSKNTLYLQLNSLRAEDTAVYYCARGGSDTVIGDWFAYWGQGTLVTVSS
VL: B4 VL with D28S, R30G, R54L, A55E, I58V, S93Y, I94L
notes: Fab from E. coli; also called VH30/VL30
B7: Fab 5310 (Fab, V domains shown)
VH: B6 VH with G32S, A56D, I106L
VL: B1 VL with G28S, I29V, G30S, S31P, S32Y, A50D, Q55E, Y93S, T94L
notes: Fab from E. coli; also called VH15/VL15
B8: Fab 5303 (Fab, V domains shown)
VH: B6 VH with G32S, G35A, G100E, T104A, I106L
VL: B4 VL with R30S, S31T, Y32F, N53S, R54L, A55E, T56S, I58V, G91A
notes: Fab from E. coli; also called VH14/VL14
B9: Fab 4217 (Fab, V domains shown)
VH: EVQLVESGGGLVQPGGSLRLSCAASGYSISSGYYWDWIRQAPGKGLEWVSSISGDGDTTYYADSVKGRFTISRDNSKNTLYLQLNSLRAEDTAVYYCAREYYGYGYALDYWGQGTLVTVSS
VL: DIQLTQSPSSLSASVGDRVTITCRASQGISSYLAWYQQKPGKAPKLLIYDASSLESGVPSRFSGSGSGTDFTLTISSLQPEDFATYYCQQYYSTPLTFGQGTKVEIKR
notes: Fab from E. coli; also called VH10/VL10
B10: Fab 5299 (Fab, V domains shown)
VH: EVQLVESGGGLVQPGGSLRLSCAASGYSISSGHYWGWIRQAPGKGLEWLALIDWYGDKYYSTSLKSRLTISRDNSKNTLYLQLNSLRAEDTAVYYCARSDYYGSHFDYWGQGTLVTVSS
VL: DIQLTQSPSSLSASVGDRVTITCRASESVDFDGFSFLAWYQQKPGKAPKLLIYDASNLETGVPSRFSGSGSGTDFTLTISSLQPEDFATYYCQQYDTLPRTFGQGTKVEIKR
notes: Fab from E. coli; also called VH11/VL11
B11: Fab 5353 (Fab, V domains shown)
VH: EVQLVESGGGLVQPGGSLRLSCAASGFTFSSYWIHWVRQAPGKGLEWVSVISGDGDTTYYADSVKGRFTISRDNSKNTLYLQLNSLRAEDTAVYYCARSRGLVLDAFDYWGQGTLVTVSS
VL: DIQLTQSPSSLSASVGDRVTITCRASQSVSGRFLAWYQQKPGKAPKLLIYDASSLESGVPSRFSGSGSGTDFTLTISSLQPEDFATYYCQQYDYWPPYTFGQGTKVEIKR
notes: Fab from E. coli; also called VH26/VL26
B12: AG10086 (antibody, human IgG4 S228P, kappa, V domains shown)
VH: B2 VH with Y33H, S51V, D55S, A104T, T106L
VL: B4 VL with D28G, R30S, R54L, A55E, I58V, I94T
notes: also called IgG of Fab 5409
B13: AG10060 (antibody, human IgG4 S228P, kappa, V domains shown)
VH: B6 VH with G32S, T104A, I106L
VL: B4 VL with D28G, R30G, R54L, A55E, I58V
notes: also called IgG of Fab 5359
B14: AG10063 (antibody, human IgG4 S228P, kappa, V domains shown)
VH: B6 VH with G35A, A56D, D57G, Y60S, P63T, G100E, D103T, T104A, I106V, A111D
VL: B4 VL with D28G, R30S, S31R, I94L
notes: also called IgG of Fab 5413
B15: AG10061 (antibody, human IgG4 S228P, kappa, V domains shown)
VH: B6 VH with G32S, G35A, G37A, A56D, Y60R, P63T, G100E, D103T, I106V, A111D
VL: B4 VL with D28G, R30G, S31T, I94L
B16: AG10132 (antibody, human IgG4 S228P, kappa, V domains shown)
VH: B2 VH with S30T, A36S, D55Y, S57D, S58T, A104T, T106L
VL: B4 VL with R24Q, S31T, R54L, A55E, I58V
notes: also called IgG of Fab 5408
B17: AG10127 (antibody, human IgG4 S228P, kappa, V domains shown)
VH: B6 VH with G32S, G35A, A56D, P63T, G100E, D103T, T104A, I106A
VL: B4 VL with R24Q, S31T, Y32F, I94T
notes: also called IgG of Fab 5318
B18: AG10128 (antibody, human IgG4 S228P, kappa, V domains shown)
VH: B6 VH with G35A, D57G, Y60S, P63T, G100E, S102E, T104A, I106T
VL: B4 VL with R24Q, S31T
notes: also called IgG of Fab 5342
B19: AG10125 (antibody, human IgG4 S228P, kappa, V domains shown)
VH: B6 VH with G35A, D57G, Y60S, P63T, I106L
VL: B4 VL with D28G, I29V, R30S, S31P, I94T
notes: also called IgG of Fab 5314
B20: AG10057 (antibody, human IgG4 S228P, kappa, V domains shown)
VH: B6 VH with G32S, G35A, G100E, T104A, I106L
VL: B4 VL with R30S, S31T, Y32F, N53S, R54L, A55E, T56S, I58V, G91A
notes: also called IgG of Fab 5303
B21: AG10126 (antibody, human IgG4 S228P, kappa, V domains shown)
VH: B2 VH
VL: B1 VL with I29V, S31T, S32Y, A50D, Q55E, Y93S, T94L
notes: also called IgG of Fab 5316
B22: AG10084 (antibody, human IgG4 S228P, kappa, V domains shown)
VH: B2 VH with S30T, Y33H, H34Y, A36N, S51G, E100G, T106L
VL: B4 VL with D28S, R30S, R54L, A55E, I58V, I94T
B23: AG10062 (antibody, human IgG4 S228P, kappa, V domains shown)
VH: EVQLVESGGGLVQPGGSLRLSCAASGYSISSGYHWAWIRQAPGKGLEWIGEIYHSGSTYYSPSLKSRVTISRDNSKNTLYLQLNSLRAEDTAVYYCARSPYYYGVFDYWGQGTLVTVSS
VL: DIQLTQSPSSLSASVGDRVTITCSASSRVGSVYWYQQKPGKAPKLLIYDASNLETGVPSRFSGSGSGTDFTLTISSLQPEDFATYYCQQYTHDPVTFGQGTKVEIKR
notes: also called IgG of Fab 5404
B24: AG10054 (antibody, human IgG4 S228P, kappa, V domains shown)
VH: EVQLVESGGGLVQPGGSLRLSCAASGFSLSTSGVAVSWIRQAPGKGLEWIGIINPNFGDTNYAQKFQGRVTISRDNSKNTLYLQLNSLRAEDTAVYYCARDEYYGGSYYFDYWGQGTLVTVSS
VL: DIQLTQSPSSLSASVGDRVTITCRASQDVRTAVAWYQQKPGKAPKLLIYDASNLETGVPSRFSGSGSGTDFTLTISSLQPEDFATYYCQQSYDWPPTFGQGTKVEIKR
notes: also called IgG of Fab 4072

Molecular target: T1, CD137-hisFc fusion protein (Sino Biological Cat 10041-H03H) (human, UniProt Q07011 24-186)
T1 construct: Bought; also called recombinant human CD137 (fused with human Fc and His tag); not shown: His tag and human Fc
Experiment: BLI Octet, Fab

Binder	Kd	koff	kon
B1	0.0195 µM	0.000937 s⁻¹	48000 M⁻¹ s⁻¹
B2	0.0114 µM	0.00161 s⁻¹	141000 M⁻¹ s⁻¹
B3	0.0153 µM	0.0091 s⁻¹	596000 M⁻¹ s⁻¹
B4	0.0149 µM	0.00608 s⁻¹	407000 M⁻¹ s⁻¹
B5	0.0104 µM	0.00812 s⁻¹	782000 M⁻¹ s⁻¹
B6	0.00256 µM	0.00179 s⁻¹	701000 M⁻¹ s⁻¹
B7	0.00572 µM	0.00465 s⁻¹	813000 M⁻¹ s⁻¹
B8	0.00512 µM	0.00509 s⁻¹	995000 M⁻¹ s⁻¹
B9	0.0967 µM	0.0545 s⁻¹	564000 M⁻¹ s⁻¹
B10	0.0137 µM	0.0076 s⁻¹	555000 M⁻¹ s⁻¹
B11	0.0161 µM	0.00597 s⁻¹	370000 M⁻¹ s⁻¹

Molecular target: T1, CD137-hisFc fusion protein (Sino …)
Experiment: BLI Octet, Fab
Remark: another data set of the same source

Binder	Kd	koff	kon
B1	0.02 µM	0.00094 s⁻¹	48000 M⁻¹ s⁻¹
B2	0.011 µM	0.0016 s⁻¹	140000 M⁻¹ s⁻¹
B3	0.015 µM	0.0091 s⁻¹	600000 M⁻¹ s⁻¹
B4	0.015 µM	0.0061 s⁻¹	410000 M⁻¹ s⁻¹
B5	0.01 µM	0.0081 s⁻¹	780000 M⁻¹ s⁻¹
B6	0.0026 µM	0.0018 s⁻¹	700000 M⁻¹ s⁻¹
B7	0.0057 µM	0.0047 s⁻¹	810000 M⁻¹ s⁻¹
B8	0.0051 µM	0.0051 s⁻¹	1e+06 M⁻¹ s⁻¹
B9	0.097 µM	0.055 s⁻¹	560000 M⁻¹ s⁻¹
B10	0.014 µM	0.0076 s⁻¹	560000 M⁻¹ s⁻¹
B11	0.016 µM	0.006 s⁻¹	370000 M⁻¹ s⁻¹

Molecular target: T2, human CD137-His6 (Sino Biological #10041-H08H) (human, UniProt Q07011 24-186)
T2 construct: Bought; also called human CD137 protein; not shown: His6 tag
Experiment: SPR Biacore, IgG

Binder	Kd	koff	kon
B12	0.046 µM	0.0045 s⁻¹	100000 M⁻¹ s⁻¹
B13	0.0011 µM	0.00025 s⁻¹	220000 M⁻¹ s⁻¹
B14	0.00099 µM	0.00039 s⁻¹	390000 M⁻¹ s⁻¹
B15	0.0036 µM	0.00078 s⁻¹	220000 M⁻¹ s⁻¹
B16	0.069 µM	0.014 s⁻¹	200000 M⁻¹ s⁻¹
B17	0.0096 µM	0.0029 s⁻¹	300000 M⁻¹ s⁻¹
B18	0.003 µM	0.00037 s⁻¹	120000 M⁻¹ s⁻¹
B19	0.015 µM	0.0017 s⁻¹	110000 M⁻¹ s⁻¹
B20	0.0079 µM	0.0061 s⁻¹	770000 M⁻¹ s⁻¹
B21	0.014 µM		
B22	0.043 µM	0.0028 s⁻¹	66000 M⁻¹ s⁻¹
B23	0.0059 µM	0.00094 s⁻¹	160000 M⁻¹ s⁻¹
B24	0.013 µM	0.0019 s⁻¹	140000 M⁻¹ s⁻¹
